From IntAct's records for PubMed 7651520

Biological target: ste20_yeast STE20 (UniProt Q03497)
Sequence (Q03497 whole entry): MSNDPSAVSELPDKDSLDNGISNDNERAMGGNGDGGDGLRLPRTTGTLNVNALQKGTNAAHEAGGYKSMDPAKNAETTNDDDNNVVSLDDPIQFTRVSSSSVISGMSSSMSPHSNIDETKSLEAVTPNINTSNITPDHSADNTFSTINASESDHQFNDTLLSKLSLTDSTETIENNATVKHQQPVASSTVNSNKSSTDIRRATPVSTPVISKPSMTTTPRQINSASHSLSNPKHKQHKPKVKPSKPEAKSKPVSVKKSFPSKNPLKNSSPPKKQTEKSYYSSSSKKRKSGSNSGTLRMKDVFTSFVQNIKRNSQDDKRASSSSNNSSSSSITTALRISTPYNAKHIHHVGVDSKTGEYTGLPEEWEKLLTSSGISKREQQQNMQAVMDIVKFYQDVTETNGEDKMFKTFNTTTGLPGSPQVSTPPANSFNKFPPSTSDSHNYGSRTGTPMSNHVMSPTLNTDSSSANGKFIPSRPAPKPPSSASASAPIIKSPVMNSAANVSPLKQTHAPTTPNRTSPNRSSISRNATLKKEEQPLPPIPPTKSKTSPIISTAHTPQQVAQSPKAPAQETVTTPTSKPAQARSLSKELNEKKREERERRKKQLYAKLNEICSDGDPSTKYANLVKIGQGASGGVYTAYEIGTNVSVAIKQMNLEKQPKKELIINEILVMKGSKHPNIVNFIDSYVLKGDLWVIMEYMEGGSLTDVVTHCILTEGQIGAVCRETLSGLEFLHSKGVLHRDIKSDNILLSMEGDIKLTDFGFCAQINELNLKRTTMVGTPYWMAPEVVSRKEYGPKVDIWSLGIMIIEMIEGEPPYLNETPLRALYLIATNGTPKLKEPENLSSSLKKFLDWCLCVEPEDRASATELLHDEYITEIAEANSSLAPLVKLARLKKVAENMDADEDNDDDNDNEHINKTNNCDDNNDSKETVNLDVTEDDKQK

Cell division control protein 42 (Saccharomyces cerevisiae), P19073 C188S, sequence (P19073 whole entry C188S): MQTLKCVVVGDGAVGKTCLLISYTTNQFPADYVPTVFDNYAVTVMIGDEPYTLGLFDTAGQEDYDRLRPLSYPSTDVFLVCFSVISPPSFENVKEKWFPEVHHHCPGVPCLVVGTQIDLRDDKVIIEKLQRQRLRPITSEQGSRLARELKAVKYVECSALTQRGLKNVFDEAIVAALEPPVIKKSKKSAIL
Cell division control protein 42 (Saccharomyces cerevisiae), P19073 G12V;C188S, sequence (P19073 whole entry G12V/C188S): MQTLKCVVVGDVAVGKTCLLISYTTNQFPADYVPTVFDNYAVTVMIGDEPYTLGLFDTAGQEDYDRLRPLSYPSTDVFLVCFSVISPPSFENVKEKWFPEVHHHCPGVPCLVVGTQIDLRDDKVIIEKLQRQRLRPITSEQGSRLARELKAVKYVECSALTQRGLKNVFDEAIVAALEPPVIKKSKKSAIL
Cell division control protein 42 (Saccharomyces cerevisiae), P19073 Q61L;C188S, sequence (P19073 whole entry Q61L/C188S): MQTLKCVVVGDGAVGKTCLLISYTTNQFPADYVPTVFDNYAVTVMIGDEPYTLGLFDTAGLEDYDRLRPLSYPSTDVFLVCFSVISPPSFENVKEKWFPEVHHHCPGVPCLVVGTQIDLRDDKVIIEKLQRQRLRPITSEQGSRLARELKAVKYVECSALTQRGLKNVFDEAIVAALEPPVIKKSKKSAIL

Row | effect of a mutation on the interaction | Substance
1 | increasing interaction | Cell division control protein 42 (Saccharomyces cerevisiae), P19073 G12V;C188S
2 | increasing interaction | Cell division control protein 42 (Saccharomyces cerevisiae), P19073 Q61L;C188S
3 | increasing interaction | Cell division control protein 42 (Saccharomyces cerevisiae), P19073 C188S
